T1: MBP-AHL28 (Arabidopsis thaliana, UniProt Q9M9R4 1-206)
T1 sequence: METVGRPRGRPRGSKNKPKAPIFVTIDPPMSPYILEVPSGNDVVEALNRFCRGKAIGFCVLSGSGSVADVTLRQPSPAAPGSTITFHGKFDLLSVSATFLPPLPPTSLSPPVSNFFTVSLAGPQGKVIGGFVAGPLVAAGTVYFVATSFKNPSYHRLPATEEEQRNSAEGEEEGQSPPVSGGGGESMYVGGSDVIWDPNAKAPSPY


Columns and labels:
MBP-AHL28 = molecular target: T1, MBP-AHL28; assay: EMSA; 1.5 ug protein, 1 uM probe; reduced by unlabeled probe; EMSA as in Sun et al. 2016; buffer, salt, pH and temperature not given; FAM-labeled probe 1 uM (Fig. S6); details: protein: recombinant; tags: N-terminal MBP; label: FAM; blunt
MBP-AHL17-His = MBP-AHL17-His (Arabidopsis thaliana, UniProt Q9LTA2 1-276); assay: EMSA; reduced by unlabeled probe; EMSA as in Sun et al. 2016; buffer, salt, pH and temperature not given; FAM-labeled probe 1 uM (Fig. S6); details: protein: recombinant; tags: N-terminal MBP; C-terminal 6xHis; label: FAM; blunt

Binder	binding result (MBP-AHL28)	binding result (MBP-AHL17-His)
COW1 promoter probe (dsDNA) DNA 1: TTTCTCTCATATTTAATTTATTTACTTAGAAA DNA 2: TTTCTAAGTAAATAAATTAAATATGAGAGAAA	binds	binds
PRP3 promoter probe (dsDNA) DNA 1: GTCCAAATATTTATATTATAAGATACATTTTAATATTTAATTATGATTTAGTAGA DNA 2: TCTACTAAATCATAATTAAATATTAAAATGTATCTTATAATATAAATATTTGGAC	binds	binds

Source: PMC10416611, “Overexpression of AHL proteins enhances root hair production by altering the transcription of RHD6‐downstream genes”
